Measurements taken from US20230279147A1 (AELAN CELL TECHNOLOGIES, published 2023).
Each block holds one molecule with its values, some of them ahead of it. Where no end group is shown, it is not given here. Me2 = dimethyl on Lys side chain (K(me2))

Assays:
[1] = system: recombinant human H1.0 protein, full length, unmethylated
H1.0K180me2 peptide = target: T1, H1.0K180me2 peptide (human); test: ELISA on coated peptides, compared at the antibody concentration that gives the threshold O.D. 1.5
T1 construct: also called H1.0Kme2 peptide
T1 peptide: CAKPVKASKPKKAKPVK(Me2)PK
Protocol: The specificity of the recombinant rabbit anti-H1.0K180me2 monoclonal IgG antibody clones for H1.0K180me2 peptide was determined using ELISA in FIG. 2A. Wells were coated with H1.0K180me2 peptide; 50 ul of peptide solution (5 ug/ml) was used to coat each well. 100 ul of each clone antibody was added to wells in a 2× dilution series. Curves for each peptide were generated by plotting antibody concentration against measured O.D at 450 nm. In order to directly compare the binding efficiencies of the different clones, a threshold cut-off was selected that intersected the linear range of each of the clone titration curves (horizontal dashed line at O.D. 1.5). Clone A (RW24) has the highest binding affinity for H1.0K180me2 peptide.
The non-specific binding of the antibody clones to unmodified H1.0 peptide was also determined by ELISA as above in FIG. 2B. Clones D (RW28) and E (RW36) both bound to unmodified H1.0 peptide with high affinity. At the threshold concentration calculated above, Clone A (RW24) was 20× more efficient at binding H1.0K180me2 peptide than unmodified H1.0 peptide, Clone B (RW6): 23×, Clone C (RW37): 22×, Clone D (RW28): 2×, Clone E (RW36): 5×.

Molecule: recombinant G9A (methyltransferase)
in vitro methylation reaction analysed by LC-MS [1]: G9A specifically methylates several C-terminal lysine residues, including H1.0K180me2

fold more efficient at binding H1.0K180me2 peptide than unmodified H1.0 peptide (H1.0K180me2 peptide): 20 ×
B1: Clone A (RW24), recombinant rabbit anti-H1.0K180me2 monoclonal IgG antibody (antibody, V domains shown)
VH: QSVEESGGRLVTPGTPLTLTCTVSGFSLNNYVMMWVRQAPGEGLEWIAAITTGGTTYYANWAKGRFTISKTSTTVDLKIISPTTEDTATYFCARDLYGDTSDDIWDAFDPWGPGTLVTVSS
VL: DPVLTQTPSSVSAAVGGTVTISCQSSESVYKNNNLAWYQQKPGQPPKLLIYSASTLASGVPSRFKGSGSGTQFTLTISGVQCDDAATYYCLGVYSDIFAF
notes: Tested as a full-length recombinant rabbit monoclonal IgG
